From paper PMC10538557, “Vps60 initiates alternative ESCRT-III filaments” (The Journal of Cell Biology, 2023)

B1: Vps60 (natural protein, S. cerevisiae, UniProt Q03390 1-229, looked up)
chain: MNRIFGYGNKKSHDQLLQESNQSMNQAQQSLSNRISQLDTQIAQLNFQLQNIQKNLQRSNNKQPSLRKQALKILNKRKQLENMKDSLDSQSWSMTQAQLTNDNLQNTMITINALKQTNNAMKAQYGKINIDKLQDMQDEMLDLIEQGDELQEVLAMNNNSGELDDISDAELDAELDALAQEDFTLPTSENSLGNDMPSYLLGANAPPAFIDEEPNLDTEDKNKALESAQ
modifications: TFP-Atto-565 label (Atto565-Vps60) in the fluorescence assays; Alexa488-Vps60 also named; labeled proteins were mixed 1:1 with unlabeled proteins
notes: Vps60 (Mos10), ESCRT-III subunit of yeast; construct pGEX4T-Vps60; also called Mos10; Atto565-Vps60; source: Bl21 Escherichia coli (pGEX4T-Vps60), purified on GST-resin, on-column cleavage with TEV protease

What was measured:
[1] = molecular target: T1, Vps2 (UniProt P36108 1-232, TFP-AlexaFluor-488, TFP-Atto-565 or NHS-Atto-647N label, by experiment; labeled proteins were mixed 1:1 with unlabeled proteins); assay: recruitment on supported lipid bilayers, confocal fluorescence microscopy; SLBs covered with both Alexa488-Snf7 patches and Atto565-Vps60, incubated with Atto647-Vps2, Vps24 and Did2; time-lapse; conditions: both partners purified
T1 construct: Vps2, ESCRT-III subunit (human homolog CHMP2A); The yeast protein is surmised from the yeast nomenclature; also called Alexa488-Vps2; Vps2-Alex488
T1 sequence (looked up): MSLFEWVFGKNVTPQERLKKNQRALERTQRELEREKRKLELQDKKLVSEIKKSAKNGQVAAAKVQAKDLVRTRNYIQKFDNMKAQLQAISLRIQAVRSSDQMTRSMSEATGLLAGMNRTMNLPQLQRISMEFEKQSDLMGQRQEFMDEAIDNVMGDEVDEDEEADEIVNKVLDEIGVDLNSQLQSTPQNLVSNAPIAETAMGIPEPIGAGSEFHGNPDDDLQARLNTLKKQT

[2] = molecular target: the molecule itself; assay: negative-stain electron microscopy; LUVs (DOPC:DOPS 6:4) in 20 mM Tris, pH 6.8, 200 mM NaCl, 1 mM MgCl2, incubated with 250 nM Vps60 for 1 h at 4°C, alone or with subsets of ESCRT-III subunits (Vps2 and Vps24; Vps2, Vps24 and Did2); filaments imaged after uranyl acetate staining
[3] = molecular target: B1; assay: as above; conditions: both partners purified

Row | Binder | binding result [1] | binding result [2] | binding result [3]
1 | B1 | binds | binds | 
2 | Vps24 (natural protein, UniProt P36095 1-224, looked up, TFP-AlexaFluor-488 label where detected; labeled proteins were mixed 1:1 with unlabeled proteins, Vps24, ESCRT-III subunit (human homolog CHMP3); The yeast protein is surmised from the yeast nomenclature; also called Alexa488-Vps24) MDYIKKAIWGPDPKEQQRRIRSVLRKNGRNIEKSLRELTVLQNKTQQLIKKSAKKNDVRTVRLYAKELYQINKQYDRMYTSRAQLDSVRMKIDEAIRMNTLSNQMADSAGLMREVNSLVRLPQLRNTMIELEKELMKSGIISEMVDDTMESVGDVGEEMDEAVDEEVNKIVEQYTNEKFKNVDQVPTVELAANEEEQEIPDEKVDEEADRMVNEMRERLRALQN |  |  | binds
3 | Did2 (natural protein, UniProt P69771 1-204, looked up, maleimide-AlexFluor-488 label where detected; labeled proteins were mixed 1:1 with unlabeled proteins, Did2, ESCRT-III subunit (human homolog CHMP1B); The yeast protein is surmised from the yeast nomenclature; also called Alexa488-Did2; Did2-Atto565) MSRNSAAGLENTLFQLKFTSKQLQKQANKASKEEKQETNKLKRALNENEDISRIYASNAIRKKNERLQLLKLASRVDSVASRVQTAVTMRQVSASMGQVCKGMDKALQNMNLQQITMIMDKFEQQFEDLDTSVNVYEDMGVNSDAMLVDNDKVDELMSKVADENGMELKQSAKLDNVPEIKAKEVNVDDEKEDKLAQRLRALRG |  |  | binds
